No end group written: not given here.
T1: recombinant HMG1 produced in E. coli as calmodulin binding protein (CBP) fusion (human)
T1 chain: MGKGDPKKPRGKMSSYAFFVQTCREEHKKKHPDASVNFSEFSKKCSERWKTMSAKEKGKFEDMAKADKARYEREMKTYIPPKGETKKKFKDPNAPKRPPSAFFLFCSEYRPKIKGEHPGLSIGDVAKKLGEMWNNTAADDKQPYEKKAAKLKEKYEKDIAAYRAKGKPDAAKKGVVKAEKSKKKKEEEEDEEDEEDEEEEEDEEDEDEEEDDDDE

T2: HMGB1 B-box peptide 91-108 (human, also: biotinylated, site not given here)
T2 peptide: DPNAPKRPPSAFFLFCSE

T3: nuclear HMGB1 in HUVEC cells (UniProt P09429 1-215)
T3 construct: HUVEC are human cells; also called nuclear HMGB1 (immunostaining)
T3 sequence (looked up): T1 chain

T4: native nuclear HMG1 prepared from 293H cells by freeze thaw (human, UniProt P09429 1-215)
T4 sequence (looked up): T1 chain

T5: released HMG1 from the conditioned media of necrotic 293H cells (human, UniProt P09429 1-215)
T5 construct: also called necrotic HMG1
T5 sequence (looked up): T1 chain

T6: activated HMG1 prepared from LPS stimulated THP-1 cells (human, UniProt P09429 1-215)
T6 construct: also called Native HMGB
T6 sequence (looked up): T1 chain

T7: actively secreted HMGB1 of LPS activated HUVEC cells (UniProt P09429 1-215)
T7 sequence (looked up): T1 chain

B1: anti-HMG1 antibody G4 (antibody, V domains shown)
VH: EVQLLESGGGLVQPGGSLRLSCAASGFTFSWYDMTWVRQAPGKGLEWVSSISPSGGYTKYADSVKGRFTISRDNSKNTLYLQMNSLRAEDTAVYYCTTEFYDYLDVWGKGTTVTVSS
VL: DIQMTQSPGTLSLSPGEGATLSCRASQSVSSTYLAWYQQKPGQAPRLLIYEASKRATGTPARFSGSGSGTDFTLSISSLEPEDFAVYYCQHRHNWPPQWTFGQGTKVEVK
notes: also called ATCC PTA-6258
B2: anti-HMG1 antibody S2 (antibody, V domains shown)
VH: EVQLLESGGGLVQPGGSLRLSCAASGFTFSGYMMVWVRQAPGKGLEWVSRISPSGGQTGYADSVKGRFTISRDNSKNTLYLQMNSLRAEDTAVYYCAREEGGSYGAFDIWGQGTMVTVSS
VL: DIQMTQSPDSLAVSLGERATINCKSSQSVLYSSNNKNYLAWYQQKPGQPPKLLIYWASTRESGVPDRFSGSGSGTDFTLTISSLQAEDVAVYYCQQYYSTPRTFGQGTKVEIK
notes: also called ATCC PTA-6142
B3: anti-HMG1 antibody S16 (antibody, V domains shown)
VH: EVQLLESGGGLVQPGGSLRLSCAASGFTFSWYSMLWVRQAPGKGLEWVSYISPSGGFTNYADSVKGRFTISRDNSKNTLYLQMNSLRAEDTAVYYCARWDYNSGWYYDHWGQGTLVTVSS
VL: DIQMTQSPDTLSLSPGERATLSCRASQSVNSRNLAWYQQKPGQAPRLLIYGASTRATGIPDRFSGSVSGTEFTLTISSLQPDDFATYYCQQYNSYFTFGQGTKLEIK
notes: also called ATCC PTA-6259
B4: anti-HMG1 antibody S10 (antibody, V domains shown)
VH: EVQLLESGGGLVQPGGSLRLSCAASGFTFSWYDMWWVRQAPGKGLEWVSWIVPSGGITAYADSVKGRFTISRDNSKNTLYLQMNSLRAEDTATYYCARGNYGPSPFDYWGQGTLVTVSS
VL: DIQMTQSPGTLSLSPGERATLSCRATQSVRKNFLAWYQQKPGQAPRLLIYDASSRATGIPDRFSGSGSGTDFTLTISRLEPEDFAVYYCQQYGNSPIIFGQGTRLEIK

How the values were obtained:
[1] = molecular target: T1, recombinant HMG1 produced in E. coli as …; assay: cell-based or functional assay
[2] = molecular target: T2, HMGB1 B-box peptide 91-108; assay: ELISA on biotinylated peptides captured on avidin
Description: The plate was then blocked with 4% milk powder dissolved in PBS at 37° C. for 1 hour. The blocking solution was removed and replaced with human anti-HMG1 antibodies at various concentrations (see FIGS. 5A-B). […] HRP activity was detected with Sureblue HRP substrate (KPL). Plates were read at 450 nm using a Kinetic Microplate Reader (Molecular Devices). […] After washing and blocking with 1% BSA in PBS, the biotinylated peptides were individually added into the avidin coated wells and incubated for 30 min at room temperature. The serial diluted antibody G4, S16 and S6 at the initial concentration at 10 μg/ml were then transferred into the wells followed by adding mouse anti human IgG-HRP conjugate (Pierce). Detection was accomplished by adding 50 μl of tetramethylbenzidine (TMB) substrate (KPL) and the absorbance was read at 450 nm.

[3] = molecular target: T3, nuclear HMGB1 in HUVEC cells; assay: immunofluorescence on HUVEC, antibody 1 ug/ml
Description: (§1) Immunofluorescence: Intracytoplasmic (ic) HMGB1 was quantitated by direct immunofluorescence. HUVEC were harvested by trypsin-EDTA treatment and seeded on a glass coverslip. Once the cells are settled, they were stimulated with 0.2 μg/ml of LPS (Sigma) for 4 hours. The cells were fixed in 2% paraformaldehyde for 15 min and then permeabilized in 0.2% Triton X-100 for 2 min. Fixed and permeabilized cells were incubated with anti-HMGB1 antibodies at 1 μg/ml for 1 hour at room temperature. Cells were then washed to remove excess or nonspecifically bound primary antibody followed by incubation with anti human IgG conjugated with fluorescence (Pierce). The sections were mounted with fluoromount (Southern Associates, Birmingham, Ala.), and the images were processed with a Nikon microscope (Japan) and a SPOT imaging system (Diagnostic Instrument).
(§2) As noted above, the different antibodies bind differently to HMGB1 isolated or prepared from different sources. To expand this observation the anti-HMBG1 antibodies G4 and S6 were used for immunostaining of untreated or LPS activated THp-1 (not shown) and HUVEC cells (FIG. 4F). […] As nuclear HMHB1 binds to DNA and histones, which might be disrupted after cell freeze and thaw we immunoprecipitate freeze thaw preparation and probed for histones by Western Blot. No DNA or histones could be detected from this preparation (data not shown). […]

[4] = molecular target: T1, recombinant HMG1 produced in E. coli as …; assay: BIAcore 3000; mAb amine-coupled to CM5, HMG1 injected in two-fold dilutions; steady-state model
Description: HMG1 Binding Affinity via BIAcore Analysis: All experiments were performed on a BIAcore 3000 instrument (BIAcore, Inc., Piscataway, N.J.). Briefly, each mAb was immobilized to a CM5 sensor chip using a standard amine coupling chemistry. Separately a reference (control) flow cell was also prepared. Two-fold, serial dilutions of HMG1 in instrument buffer were sequentially injected at a slow flow rate over the individual mAb and reference flow-cell surfaces. Following the binding and dissociation of HMG1, the mAbs surfaces were regenerated with a brief pulse of 1M NaCl-50 mM NaOH. At the end of each experiment, the binding curves were evaluated using a steady-state model available through the BIAevaluation software supplied by BIAcore, Inc. (Piscataway, N.J.).

[5] = molecular target: T4, native nuclear HMG1 prepared from 293H …; assay: sandwich ELISA, relative binding
Description: (§3) Sandwich ELISA (soluble HMG1): Immunoplates (EIA/RIA plate, High binding, Costar) were coated with anti human IgG Fc at 10 μg/ml in PBS (pH 7.2) and incubated at 4° C. overnight. The coating reagent was removed and the plates were rinsed briefly with PBS. The plates were then blocked with 4% milk for 1 hour at 37° C. and rinsed with PBS. The anti-HMG1 antibodies were diluted in 4% milk. For serial dilutions, the antibodies were used at a starting concentration of 20 μg/ml. The diluted anti-HMG1 antibodies were then added into plate and incubated for 1 hr at 37° C. The plate was then washed 10 times with PBST (PBS/0.1% tween 20) and incubate with antigen (HMGB1, 2 μg/ml; or 0.7 μg/ml for native HMGB1) in 4% milk and incubated at 37° C. for 1 h. The plate was then wash 10 times and incubated with mouse anti-HMGB1, 1 μg/ml in 4% milk at 37° C. for 1 h. The plate was washed 10 times and incubated with anti-mouse IgG-HRP at 1:1000 at 37° C. for 1 h. The plate was then washed and developed. HRP activity was detected with Sureblue HRP substrate (KPL). Plates were read at 450 nm using a Kinetic Microplate Reader (Molecular Devices).

[6] = molecular target: T5, released HMG1 from the conditioned …; assay: sandwich ELISA, relative binding
Description: as §3

[7] = molecular target: T6, activated HMG1 prepared from LPS …; assay: sandwich ELISA, relative binding
Description: as §3

[8] = molecular target: T7, actively secreted HMGB1 of LPS …; assay: immunofluorescence on LPS treated HUVEC, antibody 1 ug/ml
Description: as §1, §2

[9] = molecular target: T4, native nuclear HMG1 prepared from 293H …; assay: HMG1 capture (sandwich) ELISA, FIG. 4B
Description: as §3

[10] = molecular target: T1, recombinant HMG1 produced in E. coli as …; assay: ELISA; HMGB1 preincubated with antibody, then added to immobilised RAGE-Fc
Description: HMG1 binding to RAGE-Ig by ELISA: 50 μl/well of RAGE-Fc fusion protein at 5 μg/ml in PBS was added to each well of an ELISA plate and incubated overnight at 4° C. The plate was then blocked with 200 μl of 5% milk at 37° C. for 1 hr and washed 3× with PBS/Tween. 50 μl/well of diluted HMGB1 solution. For dose curves, HMGB1 concentrations started at 4 ug/ml in PBS. For antibody blocking the HMGB1 was preincubated in another plate with human anti-HMG1 antibodies or buffer, then transferred to the RAGE-coated plate. The plates were then incubated at room temperature for 2 hours and washed 3×. To detect any HMG1 bound to the immobilized RAGE-Fc a mixture of biotinylated mouse anti-HMG1 mAbs (10D4, 4H11, 3E10 and 5C12) each at 1 ug/ml, total Ab: 4 ug/ml, were added to each well and the plate was incubated for 1 hour at room temperature. The plate was then washed and Strepavidin-HPR was added to each well and incubated 15 min. The plate was then washed 3× and blotted dry. 100 μl of TMB developing agent was added and the plate read at 650 nm. Values were calculated as percent of inhibition with HMG1 alone equal to 0% inhibition. The data in FIG. 9 and summarized in Table 1 represent the average of two separate experiments.

Row | Binder | IC50, inhibition of rHMG1 stimulated IL-1β release from human PBMCs [1] | IC50, inhibition of rHMG1 stimulated IL-6 release from human PBMCs [1] | IC50, inhibition of rHMG1 stimulated IL-12 release from human PBMCs [1] | IC50, inhibition of rHMG1 stimulated TNF-α release from human PBMCs [1] | binding result [2] | binding result [3] | Kd [4] | binding result [5] | binding result [6] | binding result [7] | binding result [8] | binding result [9] | percent inhibition of HMG1 binding to RAGE [10]
1 | B1 | 5.01 µg/mL | 0.9 nM | 0.715 µg/mL | 5.51 µg/mL | binds | binds | 30 nM | binds | binds | binds | binds | – | –
2 | B2 | 0.22 µg/mL | 0.163 nM | – | 0.0642 µg/mL | – | – | 36 nM | – | – | – | – | binds | ≥ 35%
3 | B3 | 6.05 µg/mL | 0.56 nM | 1.24 µg/mL | 1.44 µg/mL | binds | – | 23 nM | – | – | – | – | – | ≥ 35%
4 | B4 | 2.59 µg/mL | 0.324 nM | 1.13 µg/mL | 0.875 µg/mL | – | – | 54 nM | – | – | – | – | binds | ≥ 35%

Source: patent publication US20090169546A1 (published 2009)
